Results taken from patent US20240043537A1 (MacroGenics, published 2024).
Numbering of substitutions follows the chain as printed.

B1: DART-A-M23 (bispecific antibody)
chain 1: DFVMTQSPDSLAVSLGERVTMSCKSSQSLLNSGNQKNYLTWYQQKPGQPPKLLIYWASTRESGVPDRFSGSGSGTDFTLTISSLQAEDVAVYYCQNDYSYPYTFGQGTKLEIKGGGSGGGGEVQLVESGGGLVQPGGSLRLSCAASGFTFSTYAMNWVRQAPGKGLEWVGRIRSKYNNYATYYADSVKDRFTISRDDSKNSLYLQMNSLKTEDTAVYYCVRHGNFGNSYVSWFAYWGQGTLVTVSSGGCGGGKVAALKEKVAALKEKVAALKEKVAALKE
chain 2: QAVVTQEPSLTVSPGGTVTLTCRSSTGAVTTSNYANWVQQKPGQAPRGLIGGTNKRAPWTPARFSGSLLGGKAALTITGAQAEDEADYYCAEWYSNLWVFGGGTKLTVLGGGGSGGGGEVQLVQSGAELKKPGASVKVSCKASGYTFTDYYMKWVRQAPGQGLEWIGDIIPSNGATFYNQKFKGRVTITVDKSTSTAYMELSSLRSEDTAVYYCARSHLLRASWFAYWGQGTLVTVSSGGCGGGEVAALEKEVAALEKEVAALEKEVAALEK
notes: also called CD123 x CD3 DART-A-type diabody with CD3 mAb 1 M23
B2: DART-A-M24 (bispecific antibody)
chain 1: B1 chain 1
chain 2: B1 chain 2 with E92Q
notes: also called CD123 x CD3 DART-A-type diabody with CD3 mAb 1 M24
B3: DART-A-M25 (bispecific antibody)
chain 1: B1 chain 1
chain 2: B1 chain 2 with G52D, E92L
notes: also called CD123 x CD3 DART-A-type diabody with CD3 mAb 1 M25
B4: DART-A-WT (bispecific antibody)
chain 1: B1 chain 1
chain 2: B1 chain 2 with E92L
notes: Two-chain diabody without Fc; Kabat position 65 of the CD3 VH is D; also called CD3 Mab-1; Wild-Type

Experiments:
[1] = molecular target: T1, CD3 (as used for the BIACORE kinetics of Table 11) (UniProt P07766 23-126); experiment: SPR (BIACORE)
T1 construct: CD3 mAb 1 is described as an anti-human CD3 antibody
Procedure: Variants of the CD123×CD3 DART-A-type diabody (designated DART-A-WT; amino acid sequences provided above) were generated comprising the VH and VL Domains of the identified scFvs. Thus, a panel of DART-A-type diabodies, designated DART-A-M1-DART-A-M26, comprising vCD3-Binding Domains (such vCD3-Binding Domains being respectively designated “CD3 mAb 1 M1-CD3 mAb 1 M26”) were generated. The CD3-binding kinetics of DART-A-M1-DART-A-M26 were measured by BIACORE® and compared to DART-A-WT. Table 11 summarizes the CD3-binding kinetics of DART-A-WT and the DART-A-type diabodies comprising the vCD3-Binding Domains of CD3 mAb 1 M1-CD3 mAb 1 M26, ranked by kₐ (R denotes kₐ, kd, or kD ratio of variant DART-A-type diabody (comprising a vCD3-Binding Domain) to DART-A-WT (comprising the rCD3-Binding Domain of CD3 mAb 1)).

CD3 on T-cells = CD3 on T-cells (UniProt P07766 23-207); experiment: cell-based or functional assay
Chain of CD3 on T-cells (P07766 23-207): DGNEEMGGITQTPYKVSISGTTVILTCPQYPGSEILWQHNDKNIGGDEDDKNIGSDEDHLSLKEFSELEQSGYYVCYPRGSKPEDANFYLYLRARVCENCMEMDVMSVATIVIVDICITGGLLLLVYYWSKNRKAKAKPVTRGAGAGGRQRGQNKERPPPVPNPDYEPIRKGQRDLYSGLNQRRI

T1 sequence (P07766 23-126): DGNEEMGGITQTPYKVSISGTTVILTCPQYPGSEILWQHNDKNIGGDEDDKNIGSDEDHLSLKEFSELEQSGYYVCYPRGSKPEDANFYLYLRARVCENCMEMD

Binder | Kd [1] [nM] | R (KD ratio to DART-A-WT) [1] | R (ka ratio to DART-A-WT) [1] | R (kd ratio to DART-A-WT) [1] | koff [1] [s⁻¹] | kon [1] [M⁻¹ s⁻¹] | EC50 of cytolysis at 18 hours (CTL assay, Pan-T-cells and MOLM-13, E:T = 5:1) (CD3 on T-cells) [ng/mL] | EC50 of cytolysis at 42 hours (CTL assay, Pan-T-cells and MOLM-13, E:T = 5:1) (CD3 on T-cells) [ng/mL] | R: ratio of 18 hour EC50 to DART-A-WT (CTL assay, Pan-T-cells and MOLM-13, E:T = 5:1) (CD3 on T-cells) [ratio] | R: ratio of 42 hour EC50 to DART-A-WT (CTL assay, Pan-T-cells and MOLM-13, E:T = 5:1) (CD3 on T-cells) [ratio] | max % CytoTox at 18 hours (CTL assay, Pan-T-cells and MOLM-13, E:T = 5:1) (CD3 on T-cells) [%] | max % CytoTox at 42 hours (CTL assay, Pan-T-cells and MOLM-13, E:T = 5:1) (CD3 on T-cells) [%]
B1 | 26.9 | 3.3 | 0.9 | 3 | 0.0124 | 459000 | 0.421 | 0.061 | 5.3 | 21.6 | 49.3 | 31.4
B2 | 14.5 | 1.8 | 1.2 | 2.1 | 0.00861 | 594000 | 0.34 | 0.031 | 4.3 | 11.1 | 49.4 | 31.1
B3 | 125 | 15 | 0.3 | 4.7 | 0.0192 | 154000 | 0.585 | 0.1 | 7.4 | 35.7 | 46.6 | 30.4
B4 | 8.17 | 1 | 1 | 1 | 0.00409 | 500000 | 0.079 | 0.003 | 1 | 1 | 39 | 29.1
